In this assay the target is GST-K15P cytoplasmic domain (aa 347-489) (Kaposi's sarcoma herpesvirus (KSHV, HHV-8)) (UniProt Q9QR69). The experiment in a line: SPR; Biacore X100; GST-K15P cytoplasmic tail amine-coupled to a CM4 chip (207 RU); His-tagged PLCγ2 cSH2 wt or SB injected at 1.5, 3, 6, 12, 24 nM, single cycle kinetics, 30 μl/min, HBS-EP buffer pH 7.4. On the technique in general: In SPR one partner is held on a chip, and binding of the other changes the refractive index at the surface.

The term Kd denotes the free concentration of one partner at which half of the binding sites on the other are occupied at equilibrium, for simple one-to-one binding. A lower Kd goes with tighter binding. Turning to “His-tagged PLCγ2 cSH2 S677V/R695L superbinder, purified from E. coli (domain or fragment)”, the Kd came out at 3.8 nM.
Consider “His-tagged PLCγ2 cSH2 domain wt, purified from E. coli (from UniProt P16885 1-1265) (domain or fragment)”, for which the dissociation constant (Kd) amounted to 5.8 nM.

For the origin of these results see article PMC4546648.
